From US8318708B2, “Use of vitamin D receptor agonists, ligands, and precursors to treat pancreatic fibrosis” (Salk Institute for Biological Studies, priority 2007, dated 2012)

Legend:
VDR [1] = target: T1, VDR (Homo sapiens, UniProt P11473); assay: Real-time qPCR of CYP24A1 in human LX-2 cell line; type: cell-based; conditions: LX-2 cells overnight; 1,α25(OH)2D3 1 nM, TGF β1 100 pM
T1 construct: endogenous in cells; host or cells: human LX-2 hepatic stellate cell line
T1 sequence (P11473 1-427): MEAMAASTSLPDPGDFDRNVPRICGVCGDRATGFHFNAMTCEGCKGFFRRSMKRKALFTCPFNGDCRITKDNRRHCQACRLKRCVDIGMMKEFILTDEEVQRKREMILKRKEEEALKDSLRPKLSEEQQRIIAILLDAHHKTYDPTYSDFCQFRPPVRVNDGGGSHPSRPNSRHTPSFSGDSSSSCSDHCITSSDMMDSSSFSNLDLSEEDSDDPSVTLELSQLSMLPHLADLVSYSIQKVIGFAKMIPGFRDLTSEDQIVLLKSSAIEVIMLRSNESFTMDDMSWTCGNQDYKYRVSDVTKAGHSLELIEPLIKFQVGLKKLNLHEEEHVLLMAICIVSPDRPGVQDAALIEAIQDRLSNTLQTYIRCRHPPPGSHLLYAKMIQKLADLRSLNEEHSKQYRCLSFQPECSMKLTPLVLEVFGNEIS
Description: Human LX-2 cells were grown to 50% confluence in DMEM with 10% FBS in 6-Well plates.
For qRT-PCR, 500 ng of deoxyribonuclease-treated total RNA was reverse transcribed into cDNA using SuperScript™ III reverse transcriptase essentially as described by the manufacturer (Invitrogen). Quantification of gene of interest mRNA was performed using a Rotor-Gene, RG 6000 (Corbett Research). […] Human B2M primers were from Applied Biosystems.
TGFβ signaling is the key mediator in hepatic fibrogenesis, triggering the transition of HSCs into myofibroblast-like cells and thereby stimulating synthesis of ECM proteins. Thus, TGFβ1 is produced locally in the organ as part of the fibrotic process It has been previously reported that TGFB signaling can influence the activity of VDR-dependent genes, as depicted in (FIG. 8A). In this model, TGFβ activation results in SMAD3 phosphorylation, inducing its translocation into the nucleus where it associates with the ligand bound VDR complex. Phosphorylated SMAD3 acts as a co-activator in the VDR/vitaminD3 complex enhancing the transcriptional potential of VDR on target genes. To understand the interplay between TGFB and VDR signaling pathways, the effects of TGFβ on the well characterized VDR gene target Cyp24α1 were examined.

VDR [2] = target: T2, VDR (Rattus norvegicus, UniProt P13053); assay: Western blot of VDR in sinusoidal endothelial cells (SECs); type: cell-based; design: endogenous in cells; host or cells: primary rat hepatic stellate cells, sinusoidal endothelial cells, Kupffer cells and hepatocytes (Sprague-Dawley rats); conditions: FIG. 10A
T2 sequence (P13053 1-423): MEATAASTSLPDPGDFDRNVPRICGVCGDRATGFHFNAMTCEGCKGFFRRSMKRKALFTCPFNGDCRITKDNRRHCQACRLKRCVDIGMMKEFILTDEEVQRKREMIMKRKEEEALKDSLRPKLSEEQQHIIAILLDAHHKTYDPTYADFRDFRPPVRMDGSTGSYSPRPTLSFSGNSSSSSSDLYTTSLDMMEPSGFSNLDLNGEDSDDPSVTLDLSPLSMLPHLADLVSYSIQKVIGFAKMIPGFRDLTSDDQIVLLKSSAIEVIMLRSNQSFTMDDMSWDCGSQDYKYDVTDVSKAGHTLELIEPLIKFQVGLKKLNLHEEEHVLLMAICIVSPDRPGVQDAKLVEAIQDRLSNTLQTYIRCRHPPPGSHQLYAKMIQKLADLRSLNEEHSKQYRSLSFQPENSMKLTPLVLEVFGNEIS

VDR [3] = assay: Western blot of VDR in hepatocytes treated with TGF-β1; type: cell-based, rat; human; conditions: TGF-β1 2 ng/mL, 24 hours, FIG. 14
Description: Primary rat hepatocytes were isolated from Sprague-Dawley rats by collagenase in situ perfusion and plated on collagen in Williams E medium. The immortalized human hepatocyte (IHH) cell line was cultured in DMEM/F12+GlutaMax with insulin and dexamethasone. Primary rat hepatocytes or immortalized human hepatocytes were cultured for two days, then subsequently treated with TGF-β1 (2 ng/mL human, recombinant expressed in CHO cells from Sigma-Aldrich, # T7039) for 24 hours and compared to untreated controls. Protein was prepared from harvested cells and western blotting for VDR was accomplished using a specific anti-VDR antibody (anti-human VDR antibody from R&D systems CAT # PP-H4537-00 and rat anti-VDR monoclonal antibody from Chemocon International CAT # MAB1360). Recombinant human VDR protein was included as a positive control.

CYP24a1 gene expression (QPCR, normalized to 36B4) (VDR [1]): no effect
VDR protein expression (VDR [2]): induced
Substance: TGF-β1: transforming growth factor beta 1; human recombinant from Sigma-Aldrich T7039
Increase in VDR expression (western blot) (VDR [3]): at least 5 fold
